From patent publication US20240190983A1 (JULIUS MAXIMILIANS UNIVERSIT T W RZBURG, published 2024)
Where a chain is given by its changes, count along the chain named. Names may count otherwise.

T1: Cynomolgus TNFR2 (Macaca fascicularis (cynomolgus monkey), UniProt P20333 26-461 (human entry))
T1 construct: Expressed on transiently transfected HEK293 cells; also called TNFR2-cyno; monkey TNFR2
T1 chain: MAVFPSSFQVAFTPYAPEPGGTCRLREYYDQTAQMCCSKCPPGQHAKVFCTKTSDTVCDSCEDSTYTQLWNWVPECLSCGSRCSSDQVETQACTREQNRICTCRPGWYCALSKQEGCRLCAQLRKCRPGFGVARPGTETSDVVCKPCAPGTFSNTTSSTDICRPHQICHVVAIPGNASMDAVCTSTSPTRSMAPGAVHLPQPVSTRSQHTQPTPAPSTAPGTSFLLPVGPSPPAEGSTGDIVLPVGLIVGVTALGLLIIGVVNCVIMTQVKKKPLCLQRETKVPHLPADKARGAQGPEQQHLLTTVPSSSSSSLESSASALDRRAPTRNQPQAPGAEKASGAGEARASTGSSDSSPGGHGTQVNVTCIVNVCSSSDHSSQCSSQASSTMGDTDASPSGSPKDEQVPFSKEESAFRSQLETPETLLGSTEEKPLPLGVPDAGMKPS

T2: Human TNFR2 (human, UniProt P20333 23-461)
T2 construct: On cells: HeLa-TNFR2, HT1080-Bcl2-TNFR2, transiently transfected HEK293; endogenous on Kym-1 cells; also called huTNFR2; TNFRSF1B
T2 sequence: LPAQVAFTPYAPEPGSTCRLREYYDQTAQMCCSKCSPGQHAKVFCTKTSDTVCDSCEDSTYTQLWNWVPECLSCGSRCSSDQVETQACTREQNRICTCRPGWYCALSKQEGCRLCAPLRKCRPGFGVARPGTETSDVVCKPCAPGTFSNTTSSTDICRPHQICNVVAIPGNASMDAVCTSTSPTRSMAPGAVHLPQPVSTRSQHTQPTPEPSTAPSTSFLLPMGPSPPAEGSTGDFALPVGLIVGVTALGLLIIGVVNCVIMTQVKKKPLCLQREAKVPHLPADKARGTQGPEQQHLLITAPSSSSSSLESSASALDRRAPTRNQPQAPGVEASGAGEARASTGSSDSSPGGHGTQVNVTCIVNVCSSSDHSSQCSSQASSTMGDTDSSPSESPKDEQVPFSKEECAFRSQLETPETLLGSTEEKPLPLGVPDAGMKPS

T3: Murine TNFR2 (mouse, UniProt P25119 23-474)
T3 construct: Expressed on transiently transfected HEK293 cells; also called mouse TNFR2; TNFR2(mu)
T3 sequence: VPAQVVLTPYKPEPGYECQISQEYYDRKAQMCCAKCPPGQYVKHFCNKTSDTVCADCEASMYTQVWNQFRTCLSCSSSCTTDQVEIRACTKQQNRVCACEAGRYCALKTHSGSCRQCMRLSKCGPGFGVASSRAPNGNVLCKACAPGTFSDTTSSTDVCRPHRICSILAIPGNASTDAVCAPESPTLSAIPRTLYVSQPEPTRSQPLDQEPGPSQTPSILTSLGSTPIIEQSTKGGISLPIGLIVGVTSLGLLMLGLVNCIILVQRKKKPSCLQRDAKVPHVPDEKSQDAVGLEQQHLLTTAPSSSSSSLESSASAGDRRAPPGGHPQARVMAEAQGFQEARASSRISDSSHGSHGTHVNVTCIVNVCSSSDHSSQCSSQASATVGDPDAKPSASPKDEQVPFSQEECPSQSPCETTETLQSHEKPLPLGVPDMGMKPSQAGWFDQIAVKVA

B1: VHH:C74-Fc-GpL (Fc fusion)
VHH: DVQLVESGGGLVQSGGSLRLSCAASGFPFSSSDMTWVRQTSGSVFEWVSDINPDGQNTRYADSVKGRFIISRDNAKSTLYLQMDSLKTDDTAVYYCAADPGSSGGSLSYWGKGTLVTVSS
notes: also called VHH-Fc-GpL variant of C74; not shown: The Fc domain, the C-terminal GpL reporter and the linkers or tags of the VHH-Fc-GpL construct; No entry gives the joined chain or says which Fc variant was used
B2: 3×VHH:C18-Fc-GpL (Fc fusion)
VHH: DVQLVESGGGSVQTGGSLTLSCAISGSTSERYCMGWFRQAPGREREGVAATSLTGRGAQFYADSVKGRFTISLDDAKNTLYLQMDSLRPDDTAVYYCAADVGFLCGYDSDNDPFYDWGQGTQVTVSS
notes: also called 3×VHH-Fc-GpL variant of C18; hexavalent format of C18; not shown: the listing has no entry for the 3xVHH-Fc-GpL format
B3: 3xVHH:C188-Fc-GpL (Fc fusion, not shown: a dimerising Fc or GST; small tags and cut ends)
VHH: B2 VHH with M34L, A99E
notes: also called hexavalent 3×VHH-Fc-GpL construct of C188
B4: 3xVHH:C238-Fc-GpL (Fc fusion, not shown: a dimerising Fc or GST; small tags and cut ends)
VHH: QVQLVESGGGSVQPGGSLTLSCVDSGSAYLSYCMAWFRQAPGKEREGVAAIYYGGDSYYADSVKGRFTISQDHAKNTMYLQMNSLKPEDTAVYYCAADVGFICGYDSDNDPPNDWGQGTQVTVSS
notes: also called hexavalent 3×VHH-Fc-GpL construct of C238
B5: 3×VHH:C74-Fc-GpL (Fc fusion)
VHH: B1 VHH
notes: also called 3×VHH-Fc-GpL variant of C74; hexavalent format for C74; not shown: the listing has no entry for the 3xVHH-Fc-GpL format
B6: VHH:C18-Fc-GpL (Fc fusion)
VHH: B2 VHH
notes: also called VHH-Fc-GpL variant of C18; not shown: The Fc domain, the C-terminal GpL reporter and the linkers or tags of the VHH-Fc-GpL construct; No entry gives the joined chain or says which Fc variant was used
B7: VHH:C118-Fc-GpL (Fc fusion)
VHH: QVQLVESGGGSVQAGGSLRLSCAASGHTYRSNCMGWFRQAPGKEREGVAAMYTGTDWKYYADSVKGRFTISQDKAKNTLYLVMNNLKPDDTGVYYCAADFGFICGYDSDDDPYDAWGQGTQVTVSS
notes: also called VHH-Fc-GpL format protein of C118; not shown: The Fc domain, the C-terminal GpL reporter and the linkers or tags of the VHH-Fc-GpL construct; No entry gives the joined chain or says which Fc variant was used
B8: VHH:C36-Fc-GpL (Fc fusion)
VHH: HVQLVESGGGSVQAGGSLRLSCAASGFTFSSYYMSWVRQAPGKGLEWVSAIYSDDSDNYSDSVKGRFTISKDNAKNTLYLQMNSLKPEDTAMYYCAAIRIGTDQYKFWGQGTQVTVSS
notes: also called VHH-Fc-GpL format protein of C36; not shown: The Fc domain, the C-terminal GpL reporter and the linkers or tags of the VHH-Fc-GpL construct; No entry gives the joined chain or says which Fc variant was used
B9: (68/69)-IgG1(N297A)-LC:GpL (antibody)
light: EVKLVPRQLDYKDDDDKELDVQMTQSPSSLSASVGDRVTITCKASQDINKFIAWYQQKPGKAPKLLIHYTSTLQPGIPSRFSGSGSGRDYTFTISSLQPEDIATYYCLQYGNLWTFGGGTKVEIKGSEIKRTVAAPSVFIFPPSDEQLKSGTASVVCLLNNFYPREAKVQWKVDNALQSGNSQESVTEQDSKDSTYSLSSTLTLSKADYEKHKVYACEVTHQGLSSPVTKSFNRGECLEKPTENNEDFNIVAVASNFATTDLDADRGKLPGKKLPLEVLKEMEANARKAGCTRGCLICLSHIKCTPKMKKFIPGRCHTYEGDKESAQGGIGEAIVDIPEIPGFKDLEPMEQFIAQVDLCVDCTTGCLKGLANVQCSDLLKKWLPQRCATFASKIQGQVDKIKGAGGD
heavy: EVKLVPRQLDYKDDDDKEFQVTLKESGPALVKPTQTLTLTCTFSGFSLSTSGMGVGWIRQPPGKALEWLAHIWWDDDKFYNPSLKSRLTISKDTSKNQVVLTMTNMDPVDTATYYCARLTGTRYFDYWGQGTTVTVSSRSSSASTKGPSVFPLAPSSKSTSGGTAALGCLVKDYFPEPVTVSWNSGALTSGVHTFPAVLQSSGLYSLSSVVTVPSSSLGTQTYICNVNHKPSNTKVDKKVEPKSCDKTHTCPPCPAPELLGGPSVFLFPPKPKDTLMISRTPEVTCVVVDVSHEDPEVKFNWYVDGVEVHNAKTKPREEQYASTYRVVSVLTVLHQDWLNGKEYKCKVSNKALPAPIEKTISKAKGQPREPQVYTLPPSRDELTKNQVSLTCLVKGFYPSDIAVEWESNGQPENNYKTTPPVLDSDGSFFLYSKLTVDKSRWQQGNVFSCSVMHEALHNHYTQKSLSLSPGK
notes: Gaussia princeps luciferase (GpL) fused to the light chain; copies: 2 + 2
B10: C29-IgG1(N297A)-LC:GpL (antibody)
light: EVKLVPRQLDYKDDDDKELDVVMTQTPLSLPVSLGDQASISCRASQSLVHSNGNTYLQWYLQKPGQSPKLLIYKVSNRFSGVPDRFSGSGSGTDFTLKISRVEAEDLGVFFCSQSTHVPFTFGSGTKLEIKGSEIKRTVAAPSVFIFPPSDEQLKSGTASVVCLLNNFYPREAKVQWKVDNALQSGNSQESVTEQDSKDSTYSLSSTLTLSKADYEKHKVYACEVTHQGLSSPVTKSFNRGECLEKPTENNEDFNIVAVASNFATTDLDADRGKLPGKKLPLEVLKEMEANARKAGCTRGCLICLSHIKCTPKMKKFIPGRCHTYEGDKESAQGGIGEAIVDIPEIPGFKDLEPMEQFIAQVDLCVDCTTGCLKGLANVQCSDLLKKWLPQRCATFASKIQGQVDKIKGAGGD
heavy: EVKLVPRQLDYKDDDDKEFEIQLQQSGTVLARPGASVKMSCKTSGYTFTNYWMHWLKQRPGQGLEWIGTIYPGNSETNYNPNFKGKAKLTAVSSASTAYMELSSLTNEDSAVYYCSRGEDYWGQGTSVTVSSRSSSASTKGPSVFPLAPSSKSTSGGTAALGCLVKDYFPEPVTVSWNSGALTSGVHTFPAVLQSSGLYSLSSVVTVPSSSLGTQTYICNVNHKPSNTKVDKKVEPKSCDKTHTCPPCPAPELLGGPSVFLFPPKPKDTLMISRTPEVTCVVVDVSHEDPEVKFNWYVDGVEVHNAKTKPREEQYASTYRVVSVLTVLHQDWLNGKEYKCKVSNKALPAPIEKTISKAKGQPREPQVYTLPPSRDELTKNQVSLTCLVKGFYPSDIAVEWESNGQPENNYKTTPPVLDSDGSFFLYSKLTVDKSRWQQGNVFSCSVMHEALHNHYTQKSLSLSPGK
notes: copies: 2 + 2
B11: C31-2-IgG1(N297A)-LC:GpL (antibody)
light: EVKLVPRQLDYKDDDDKELQAVVTQESALTTSPGETVTLTCRSSTGAVTTSNYANWVQEKPDHLFTGLIGGTNNRAPGVPARFSGSVIGDKAALTITGAQTEDEAIYFCALWYSNHWVFGGGTKLTVLGGSEIKRTVAAPSVFIFPPSDEQLKSGTASVVCLLNNFYPREAKVQWKVDNALQSGNSQESVTEQDSKDSTYSLSSTLTLSKADYEKHKVYACEVTHQGLSSPVTKSFNRGECLEKPTENNEDFNIVAVASNFATTDLDADRGKLPGKKLPLEVLKEMEANARKAGCTRGCLICLSHIKCTPKMKKFIPGRCHTYEGDKESAQGGIGEAIVDIPEIPGFKDLEPMEQFIAQVDLCVDCTTGCLKGLANVQCSDLLKKWLPQRCATFASKIQGQVDKIKGAGGD
heavy: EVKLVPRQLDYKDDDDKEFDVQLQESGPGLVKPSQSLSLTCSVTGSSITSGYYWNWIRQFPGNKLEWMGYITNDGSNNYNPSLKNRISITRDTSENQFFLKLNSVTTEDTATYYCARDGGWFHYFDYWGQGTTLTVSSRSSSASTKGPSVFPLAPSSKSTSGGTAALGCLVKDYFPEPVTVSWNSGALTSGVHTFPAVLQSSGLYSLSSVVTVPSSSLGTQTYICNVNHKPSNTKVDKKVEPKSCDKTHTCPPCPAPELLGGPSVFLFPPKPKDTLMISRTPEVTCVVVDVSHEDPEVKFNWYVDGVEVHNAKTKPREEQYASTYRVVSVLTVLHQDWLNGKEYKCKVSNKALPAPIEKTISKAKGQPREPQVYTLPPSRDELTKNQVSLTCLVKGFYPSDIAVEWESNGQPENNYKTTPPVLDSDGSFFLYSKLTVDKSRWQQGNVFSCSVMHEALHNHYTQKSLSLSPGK
notes: copies: 2 + 2

Target: T1, Cynomolgus TNFR2
Test: equilibrium binding of VHH-Fc-GpL to cells expressing cynomolgus TNFR2, 37 C
Experimental: (§1) Specific binding (open circles) was obtained by subtraction of the non-specific binding values (Hek293 cells—crosses) from the binding values for transfectants expressing human TNFR2 (total binding—closed circles). Specific binding was analyzed with the “nonlinear regression to a one-site specific binding curve” function of the GraphPad Prism5 software.
(§2) The equivalent experiment was also performed using TNFR2 from different species, namely from Mus musculus (mouse), Macaca fascicularis (cynomolgus monkey), and Chlorocebus sabaeus (African green monkey) to study the ability of the VHH regions to bind to TNFR2 from different species. The ability to cross react to TNFR2 from different species can be helpful in allowing the antibodies to be studied in various models before assessment in human patients.

B1: no binding.

target: T2, Human TNFR2; test: binding of 3xVHH-Fc-GpL to HEK293 cells transiently transfected with TNFR2; empty-vector cells as unspecific binding

B2 and B3 are within 1.5-fold of each other in Kd: 0.006 µg/mL for the first, 0.005 µg/mL for the second.

Going from B4 to B5, the Kd rises from 0.008 µg/mL to 0.035 µg/mL (4.4-fold).

Target: T1, Cynomolgus TNFR2
Test: equilibrium binding of VHH-Fc-GpL to cells expressing cynomolgus TNFR2, 37 C; column head Affinity (ng/ml)
Experimental: as §1, §2

B6 showed a Kd of 0.05 µg/mL.

target: T3, Murine TNFR2; test: equilibrium binding of VHH-Fc-GpL to cells expressing mouse TNFR2, 37 C
Experimental: as §1, §2

B7: no binding.
B8: no binding.
B1: no binding.

target: T4, African green monkey TNFR2 (Chlorocebus sabaeus (African green …)); test: equilibrium binding of VHH-Fc-GpL to cells expressing African green monkey TNFR2, 37 C; column head Affinity (ng/ml)
T4 construct: whole, on cells
Experimental: as §1, §2

First: B7
Second: B6
The Kd of the first is 1.7-fold higher: 0.1 µg/mL for the first, 0.06 µg/mL for the second.

B8 and B1 are within 1.5-fold of each other in Kd: 0.08 µg/mL for the first, 0.06 µg/mL for the second.

target: T2, Human TNFR2; test: equilibrium binding of VHH-Fc-GpL to cells expressing human TNFR2, 37 °C; HEK293 cells as unspecific binding; one-site fit of specific binding

First: B7
Second: B6
The Kd of the first is 1.8-fold lower: 0.13 µg/mL for the first, 0.23 µg/mL for the second.

Compared with B8, B1 is 40-fold lower in Kd: 3.2 µg/mL for the first, 0.08 µg/mL for the second.

target: T3, Murine TNFR2; test: equilibrium binding of 3xVHH-Fc-GpL to HEK293 cells expressing murine TNFR2 (panel head Hek-293-TNFR2-murine), 37 °C

Compared with B2, B3 is 2.6-fold lower in Kd: 0.18 µg/mL for the first, 0.07 µg/mL for the second.

B4 was tested, and the Kd was 0.1 µg/mL.

target: T2, Human TNFR2; test: equilibrium binding of the GpL fusion protein to HeLa-TNFR2 cells, 37 °C; unspecific binding on HeLa cells subtracted; cell-bound luciferase
Experimental: FIG. 11—Binding properties of TNFR2-specific antibodies. (A) Equilibrium binding of the indicated anti-TNFR2 antibody GpL fusion proteins to cell expressed human TNFR2 at 37° C. (B) HeLa-TNFR2 cells were pretreated with the indicated amounts of anti-TNFR2 antibodies or remained untreated. […] Binding of the various constructs to untransfected HeLa cells was analyzed to obtain unspecific binding values.
Affinity of TNFR2-specific antibodies and antibody variants were also evaluated with HeLa cells and HeLa cells stably expressing human TNFR2. HeLa and HeLa-TNFR2 cells were seeded out in 24-well plates. Next day, the cells were challenged with the indicated concentrations of GpL-labelled TNFR2 antibodies for 1 hour at 37° C. To eliminate the unbound antibodies, the cells were washed 10 times with ice-cold PBS. The cells were then scratched and collected in 50 μl of medium (RPMI, 0.5% FCS) and transferred to black 96-well plates for measurement as mentioned above. The specific binding of different TNFR2-specific antibodies/antibody variants was calculated by subtracting the unspecific binding (values obtained from HeLa cells) from total binding (obtained from HeLa-TNFR2). The resulting values were fitted using the non-linear regression analysis option of GraphPad Prism 5.

First: B9
Second: B10
The Bmax of the first is higher: 1130 kRLU for the first, 250 kRLU for the second.

For B11, the Bmax was 890 kRLU.

First: B9
Second: B10
The Kd of the first is 18-fold lower: 0.044 µg/mL for the first, 0.8 µg/mL for the second.

B11 showed a Kd of 2.19 µg/mL.

target: T2, Human TNFR2; test: equilibrium binding of 3xVHH-Fc-GpL to HEK293 cells expressing human TNFR2 (panel head Hek-293-TNFR2-human), 37 °C

First: B2
Second: B3
The Kd of the first is 3-fold lower: 0.001 µg/mL for the first, 0.003 µg/mL for the second.

Compared with B4, B5 is 6-fold lower in Kd: 0.006 µg/mL for the first, 0.001 µg/mL for the second.
